*1 amine or outer side, *2 acyl side, *3 side chain or, on linkers, in order; H or OH if unused. Side-chain parts run from the residue outwards. [ ]: non-standard residue; d: D form. The star is where a group is joined. C18 diacid = O=C(O)CCCCCCCCCCCCCCCCC(=O)*; C16 diacid = O=C(O)CCCCCCCCCCCCCCC(=O)*; γGlu = O=C(O)[C@H](CCC(=O)[*:2])N[*:1]; Ac6c = NC1(C(=O)O)CCCCC1; Ac5c = NC1(C(=O)O)CCCC1; Ac3c = NC1(C(=O)O)CC1
T1: CRF1R receptor (UniProt P34998 24-415, limits assumed)
T1 sequence (looked up): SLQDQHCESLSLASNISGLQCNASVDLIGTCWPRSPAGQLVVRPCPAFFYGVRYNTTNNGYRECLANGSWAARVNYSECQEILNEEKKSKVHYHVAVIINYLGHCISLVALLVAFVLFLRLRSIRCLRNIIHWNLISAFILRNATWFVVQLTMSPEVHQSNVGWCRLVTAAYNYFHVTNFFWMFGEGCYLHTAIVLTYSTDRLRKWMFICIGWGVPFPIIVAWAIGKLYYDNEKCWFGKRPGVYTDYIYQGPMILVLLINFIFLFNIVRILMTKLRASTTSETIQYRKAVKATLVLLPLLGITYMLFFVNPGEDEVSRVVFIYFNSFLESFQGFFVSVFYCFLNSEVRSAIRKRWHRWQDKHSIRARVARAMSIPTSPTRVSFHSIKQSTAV


How the values were obtained:
CRF1R receptor = biological target: T1, CRF1R receptor; test: cell-based or functional assay
[1] = biological target: human corticotropin-releasing factor 2a (CRF2a receptor) (human), Q13324; test: cell-based or functional assay
human corticotropin-releasing factor 2a (CRF2a receptor) (human), Q13324, sequence (Q13324 20-411): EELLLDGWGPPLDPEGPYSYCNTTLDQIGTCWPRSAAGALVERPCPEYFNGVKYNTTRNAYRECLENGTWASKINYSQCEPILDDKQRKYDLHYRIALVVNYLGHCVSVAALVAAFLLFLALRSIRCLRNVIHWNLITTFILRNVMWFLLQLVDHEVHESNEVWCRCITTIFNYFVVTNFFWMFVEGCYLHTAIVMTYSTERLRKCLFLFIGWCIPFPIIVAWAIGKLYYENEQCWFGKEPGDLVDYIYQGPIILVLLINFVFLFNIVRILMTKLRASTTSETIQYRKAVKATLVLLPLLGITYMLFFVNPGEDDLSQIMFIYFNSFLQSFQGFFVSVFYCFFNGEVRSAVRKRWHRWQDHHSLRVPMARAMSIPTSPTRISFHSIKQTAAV

Binder	Emax (% I) (CRF1R receptor) [%]	EC50 [nM] (cAMP) [1]
Ac-IVLSLD[dV]PIKLK([γGlu-C18 diacid])KILLEQEKQKKQREQAETN[Ac5c]QILAQV-NH2 (SMILES CC[C@H](C)[C@H](NC(C)=O)C(=O)N[C@H](C(=O)N[C@@H](CC(C)C)C(=O)N[C@@H](CO)C(=O)N[C@@H](CC(C)C)C(=O)N[C@@H](CC(=O)O)C(=O)N[C@@H](C(=O)N1CCC[C@H]1C(=O)N[C@H](C(=O)N[C@@H](CCCCN)C(=O)N[C@@H](CC(C)C)C(=O)N[C@@H](CCCCNC(=O)CC[C@H](NC(=O)CCCCCCCCCCCCCCCCC(=O)O)C(=O)O)C(=O)N[C@@H](CCCCN)C(=O)N[C@H](C(=O)N[C@@H](CC(C)C)C(=O)N[C@@H](CC(C)C)C(=O)N[C@@H](CCC(=O)O)C(=O)N[C@@H](CCC(N)=O)C(=O)N[C@@H](CCC(=O)O)C(=O)N[C@@H](CCCCN)C(=O)N[C@@H](CCC(N)=O)C(=O)N[C@@H](CCCCN)C(=O)N[C@@H](CCCCN)C(=O)N[C@@H](CCC(N)=O)C(=O)N[C@@H](CCCNC(=N)N)C(=O)N[C@@H](CCC(=O)O)C(=O)N[C@@H](CCC(N)=O)C(=O)N[C@@H](C)C(=O)N[C@@H](CCC(=O)O)C(=O)N[C@H](C(=O)N[C@@H](CC(N)=O)C(=O)NC1(C(=O)N[C@@H](CCC(N)=O)C(=O)N[C@H](C(=O)N[C@@H](CC(C)C)C(=O)N[C@@H](C)C(=O)N[C@@H](CCC(N)=O)C(=O)N[C@H](C(N)=O)C(C)C)[C@@H](C)CC)CCCC1)[C@@H](C)O)[C@@H](C)CC)[C@@H](C)CC)C(C)C)C(C)C) [SEQ ID NO 135]	15	0.19
Ac-IVLSLD[dV]PIKLK([γGlu-C16 diacid])KILLEQEKQKKQREQAETN[Ac3c]QILAQV-NH2 (SMILES CC[C@H](C)[C@H](NC(C)=O)C(=O)N[C@H](C(=O)N[C@@H](CC(C)C)C(=O)N[C@@H](CO)C(=O)N[C@@H](CC(C)C)C(=O)N[C@@H](CC(=O)O)C(=O)N[C@@H](C(=O)N1CCC[C@H]1C(=O)N[C@H](C(=O)N[C@@H](CCCCN)C(=O)N[C@@H](CC(C)C)C(=O)N[C@@H](CCCCNC(=O)CC[C@H](NC(=O)CCCCCCCCCCCCCCC(=O)O)C(=O)O)C(=O)N[C@@H](CCCCN)C(=O)N[C@H](C(=O)N[C@@H](CC(C)C)C(=O)N[C@@H](CC(C)C)C(=O)N[C@@H](CCC(=O)O)C(=O)N[C@@H](CCC(N)=O)C(=O)N[C@@H](CCC(=O)O)C(=O)N[C@@H](CCCCN)C(=O)N[C@@H](CCC(N)=O)C(=O)N[C@@H](CCCCN)C(=O)N[C@@H](CCCCN)C(=O)N[C@@H](CCC(N)=O)C(=O)N[C@@H](CCCNC(=N)N)C(=O)N[C@@H](CCC(=O)O)C(=O)N[C@@H](CCC(N)=O)C(=O)N[C@@H](C)C(=O)N[C@@H](CCC(=O)O)C(=O)N[C@H](C(=O)N[C@@H](CC(N)=O)C(=O)NC1(C(=O)N[C@@H](CCC(N)=O)C(=O)N[C@H](C(=O)N[C@@H](CC(C)C)C(=O)N[C@@H](C)C(=O)N[C@@H](CCC(N)=O)C(=O)N[C@H](C(N)=O)C(C)C)[C@@H](C)CC)CC1)[C@@H](C)O)[C@@H](C)CC)[C@@H](C)CC)C(C)C)C(C)C) [SEQ ID NO 61]	3	0.36
Ac-IVLSLD[dV]PIKLK([γGlu-C18 diacid])KILLEQEKQKKQREQAETN[Ac6c]QILAQV-NH2 (SMILES CC[C@H](C)[C@H](NC(C)=O)C(=O)N[C@H](C(=O)N[C@@H](CC(C)C)C(=O)N[C@@H](CO)C(=O)N[C@@H](CC(C)C)C(=O)N[C@@H](CC(=O)O)C(=O)N[C@@H](C(=O)N1CCC[C@H]1C(=O)N[C@H](C(=O)N[C@@H](CCCCN)C(=O)N[C@@H](CC(C)C)C(=O)N[C@@H](CCCCNC(=O)CC[C@H](NC(=O)CCCCCCCCCCCCCCCCC(=O)O)C(=O)O)C(=O)N[C@@H](CCCCN)C(=O)N[C@H](C(=O)N[C@@H](CC(C)C)C(=O)N[C@@H](CC(C)C)C(=O)N[C@@H](CCC(=O)O)C(=O)N[C@@H](CCC(N)=O)C(=O)N[C@@H](CCC(=O)O)C(=O)N[C@@H](CCCCN)C(=O)N[C@@H](CCC(N)=O)C(=O)N[C@@H](CCCCN)C(=O)N[C@@H](CCCCN)C(=O)N[C@@H](CCC(N)=O)C(=O)N[C@@H](CCCNC(=N)N)C(=O)N[C@@H](CCC(=O)O)C(=O)N[C@@H](CCC(N)=O)C(=O)N[C@@H](C)C(=O)N[C@@H](CCC(=O)O)C(=O)N[C@H](C(=O)N[C@@H](CC(N)=O)C(=O)NC1(C(=O)N[C@@H](CCC(N)=O)C(=O)N[C@H](C(=O)N[C@@H](CC(C)C)C(=O)N[C@@H](C)C(=O)N[C@@H](CCC(N)=O)C(=O)N[C@H](C(N)=O)C(C)C)[C@@H](C)CC)CCCCC1)[C@@H](C)O)[C@@H](C)CC)[C@@H](C)CC)C(C)C)C(C)C) [SEQ ID NO 134]	10	0.5
Ac-IVLSLD[dV]PIKLK([γGlu-C16 diacid])KILLEQEKQKKQREQAETN[Ac5c]QILAQV-NH2 (SMILES CC[C@H](C)[C@H](NC(C)=O)C(=O)N[C@H](C(=O)N[C@@H](CC(C)C)C(=O)N[C@@H](CO)C(=O)N[C@@H](CC(C)C)C(=O)N[C@@H](CC(=O)O)C(=O)N[C@@H](C(=O)N1CCC[C@H]1C(=O)N[C@H](C(=O)N[C@@H](CCCCN)C(=O)N[C@@H](CC(C)C)C(=O)N[C@@H](CCCCNC(=O)CC[C@H](NC(=O)CCCCCCCCCCCCCCC(=O)O)C(=O)O)C(=O)N[C@@H](CCCCN)C(=O)N[C@H](C(=O)N[C@@H](CC(C)C)C(=O)N[C@@H](CC(C)C)C(=O)N[C@@H](CCC(=O)O)C(=O)N[C@@H](CCC(N)=O)C(=O)N[C@@H](CCC(=O)O)C(=O)N[C@@H](CCCCN)C(=O)N[C@@H](CCC(N)=O)C(=O)N[C@@H](CCCCN)C(=O)N[C@@H](CCCCN)C(=O)N[C@@H](CCC(N)=O)C(=O)N[C@@H](CCCNC(=N)N)C(=O)N[C@@H](CCC(=O)O)C(=O)N[C@@H](CCC(N)=O)C(=O)N[C@@H](C)C(=O)N[C@@H](CCC(=O)O)C(=O)N[C@H](C(=O)N[C@@H](CC(N)=O)C(=O)NC1(C(=O)N[C@@H](CCC(N)=O)C(=O)N[C@H](C(=O)N[C@@H](CC(C)C)C(=O)N[C@@H](C)C(=O)N[C@@H](CCC(N)=O)C(=O)N[C@H](C(N)=O)C(C)C)[C@@H](C)CC)CCCC1)[C@@H](C)O)[C@@H](C)CC)[C@@H](C)CC)C(C)C)C(C)C) [SEQ ID NO 60]	5	0.34
Ac-IVLSLD[dV]PIKLK([γGlu-C16 diacid])KILLEQEKQKKQREQAETN[Ac6c]QILAQV-NH2 (SMILES CC[C@H](C)[C@H](NC(C)=O)C(=O)N[C@H](C(=O)N[C@@H](CC(C)C)C(=O)N[C@@H](CO)C(=O)N[C@@H](CC(C)C)C(=O)N[C@@H](CC(=O)O)C(=O)N[C@@H](C(=O)N1CCC[C@H]1C(=O)N[C@H](C(=O)N[C@@H](CCCCN)C(=O)N[C@@H](CC(C)C)C(=O)N[C@@H](CCCCNC(=O)CC[C@H](NC(=O)CCCCCCCCCCCCCCC(=O)O)C(=O)O)C(=O)N[C@@H](CCCCN)C(=O)N[C@H](C(=O)N[C@@H](CC(C)C)C(=O)N[C@@H](CC(C)C)C(=O)N[C@@H](CCC(=O)O)C(=O)N[C@@H](CCC(N)=O)C(=O)N[C@@H](CCC(=O)O)C(=O)N[C@@H](CCCCN)C(=O)N[C@@H](CCC(N)=O)C(=O)N[C@@H](CCCCN)C(=O)N[C@@H](CCCCN)C(=O)N[C@@H](CCC(N)=O)C(=O)N[C@@H](CCCNC(=N)N)C(=O)N[C@@H](CCC(=O)O)C(=O)N[C@@H](CCC(N)=O)C(=O)N[C@@H](C)C(=O)N[C@@H](CCC(=O)O)C(=O)N[C@H](C(=O)N[C@@H](CC(N)=O)C(=O)NC1(C(=O)N[C@@H](CCC(N)=O)C(=O)N[C@H](C(=O)N[C@@H](CC(C)C)C(=O)N[C@@H](C)C(=O)N[C@@H](CCC(N)=O)C(=O)N[C@H](C(N)=O)C(C)C)[C@@H](C)CC)CCCCC1)[C@@H](C)O)[C@@H](C)CC)[C@@H](C)CC)C(C)C)C(C)C) [SEQ ID NO 59]	9	0.81
Ac-IVLSLD[dV]PIKLK([γGlu-C18 diacid])KILLEQEKQKKQREQAETN[Ac3c]QILAQV-NH2 (SMILES CC[C@H](C)[C@H](NC(C)=O)C(=O)N[C@H](C(=O)N[C@@H](CC(C)C)C(=O)N[C@@H](CO)C(=O)N[C@@H](CC(C)C)C(=O)N[C@@H](CC(=O)O)C(=O)N[C@@H](C(=O)N1CCC[C@H]1C(=O)N[C@H](C(=O)N[C@@H](CCCCN)C(=O)N[C@@H](CC(C)C)C(=O)N[C@@H](CCCCNC(=O)CC[C@H](NC(=O)CCCCCCCCCCCCCCCCC(=O)O)C(=O)O)C(=O)N[C@@H](CCCCN)C(=O)N[C@H](C(=O)N[C@@H](CC(C)C)C(=O)N[C@@H](CC(C)C)C(=O)N[C@@H](CCC(=O)O)C(=O)N[C@@H](CCC(N)=O)C(=O)N[C@@H](CCC(=O)O)C(=O)N[C@@H](CCCCN)C(=O)N[C@@H](CCC(N)=O)C(=O)N[C@@H](CCCCN)C(=O)N[C@@H](CCCCN)C(=O)N[C@@H](CCC(N)=O)C(=O)N[C@@H](CCCNC(=N)N)C(=O)N[C@@H](CCC(=O)O)C(=O)N[C@@H](CCC(N)=O)C(=O)N[C@@H](C)C(=O)N[C@@H](CCC(=O)O)C(=O)N[C@H](C(=O)N[C@@H](CC(N)=O)C(=O)NC1(C(=O)N[C@@H](CCC(N)=O)C(=O)N[C@H](C(=O)N[C@@H](CC(C)C)C(=O)N[C@@H](C)C(=O)N[C@@H](CCC(N)=O)C(=O)N[C@H](C(N)=O)C(C)C)[C@@H](C)CC)CC1)[C@@H](C)O)[C@@H](C)CC)[C@@H](C)CC)C(C)C)C(C)C) [SEQ ID NO 136]	5	0.16
